Several values for one entry are separate records, joined by “and”; a condition that tells them apart may be missing. Identical values can stand only once.
Columns and labels:
[1] = molecular target: M. polysiphoniae SPARTA (MapSPARTA) complex of MapAgo and MapTIR-APAZ (Maribacter polysiphoniae); assay: mass photometry
[2] = molecular target: M. polysiphoniae SPARTA (MapSPARTA) complex of MapAgo and MapTIR-APAZ (Maribacter polysiphoniae); assay: cryo-EM structure
[3] = molecular target: M. polysiphoniae SPARTA (MapSPARTA) complex of MapAgo and MapTIR-APAZ (Maribacter polysiphoniae); assay: cryo-EM structure; remark: listed apart in the source

stoichiometry N [1]: 2 and 4
stoichiometry N [2]: 4
stoichiometry N [3]: 2
Substance: M. polysiphoniae SPARTA (MapSPARTA) complex of MapAgo and MapTIR-APAZ

Source: paper PMC10355822
